The text below walks through data of PMC4180279 (Biochemistry, 2014).

For experiment [1], the target named is Neuronal calcium sensor-1 (NCS-1), N-terminal His tag removed with TEV protease (UniProt P62166 1-190). The experiment can be described thus: other fluorescence titration; intrinsic tryptophan fluorescence of 1 μM NCS-1 (excitation 280 nm, emission 290-410 nm), PQIQ peptide added stepwise; 50 mM Tris pH 7.5, 50 mM NaCl, 5 mM CaCl2; room temperature; logistic fit; triplicate. The note with it: both partners purified.

For experiment [2], the target named is Calmodulin (CaM) expressed from pET-15b (UniProt P0DP23 1-149). Briefly: NMR titration; 1H-15N HSQC of [15N]NCS-1 (0.8 mM) with PQIQ peptide, then equimolar unlabelled CaM/Ca2+ added to the preformed complex; 50 mM Tris pH 6.5, 50 mM NaCl, 5 mM CaCl2, 300 K. To be noted: both partners purified.

Sequence of Neuronal calcium sensor-1 (NCS-1), N-terminal His tag removed with TEV protease (P62166 whole entry): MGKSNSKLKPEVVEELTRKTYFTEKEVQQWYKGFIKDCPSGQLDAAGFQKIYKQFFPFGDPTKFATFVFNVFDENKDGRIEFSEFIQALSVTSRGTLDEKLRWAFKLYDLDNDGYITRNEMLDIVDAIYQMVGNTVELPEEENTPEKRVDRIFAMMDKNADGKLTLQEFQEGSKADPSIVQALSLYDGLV

In the case of TVGKIYAAMMIMEYYRQSKAKKLQAMR [PQIQ peptide, synthetic P/Q peptide corresponding to residues 1903-1929 of the human P/Q receptor], the concentration for a half-maximal effect (EC50) in experiment [1] worked out at 1040 ± 70 nM. Moreover, the binding result in experiment [2] is given as “binds”.
